This experiment addresses human folate receptor 1 (FOLR1) (human) (UniProt P15328). Description: cell-based or functional assay.

human folate receptor 1 (FOLR1) (human), sequence (P15328 25-234 limits assumed, form in doubt): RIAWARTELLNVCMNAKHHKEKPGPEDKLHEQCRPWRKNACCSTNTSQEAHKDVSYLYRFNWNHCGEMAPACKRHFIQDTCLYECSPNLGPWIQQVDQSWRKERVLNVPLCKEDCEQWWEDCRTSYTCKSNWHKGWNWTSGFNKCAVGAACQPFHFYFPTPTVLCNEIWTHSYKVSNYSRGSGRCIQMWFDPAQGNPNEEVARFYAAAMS

B1: IMGN853 (immunoconjugate of antibody huMov19, sulfo-SPDB and DM4) (antibody, from a related filing, V domains shown, part only)
VH: QVQLVQSGAEVVKPGASVKISCKASGYTFTGYFMNWVKQSPGQSLEWIGRIHPYDGDTFYNQKFQGKATLTVDKSSNTAHMELLSLTSEDFAVYYCTRYDGSRAMDYWGQGTTVTVSS
VL: DIVLTQSPLSLAVSLGQPAIISCKASQSVSFAGTSLMHWYHQKPGQQPRLLIYRASNLEAGVPDRFSGSGSKTDFTLTISPVEAEDAATYYCQQSREYPYTFGGGTKLEIKR
Molecule B1 displayed an IC50 of cytotoxicity on Jeg-3 cells (5 days, WST-8) of 1 nM.

The values are drawn from patent publication US20180200383A1.
